One assay deals with mouse α11β1 (Mus musculus, UniProt P61622). The assay is described as follows: ELISA binding to recombinant mouse α11β1. As to conditions: for Murine α11β1 ELISA: binding Yes/No. The procedure:
(§1) 0.25 μg/mL of target antigen (recombinant human or mouse α11β1) was plated in a 96-well plate over night at 4° C. Plates were washed (PBS with 0.1% Tween-20), blocked (PBS with 2% BSA and 0.05% Tween-20) for 1 hour at room temperature and incubated with a range of antibody concentrations for 1 hour at room temperature. Subsequently, plates were washed and incubated with biotinylated anti-rabbit/mouse/human IgG in a 1:1000 dilution buffer and incubated for 1 hour at room temperature. After washing the plates, Streptavidin HRP was added at 1:200 in dilution buffer and incubated for 1 hour at room temperature. Ultra TMB ELISA substrate solution was added and the plates incubated for 5 minutes on a plate shaker. The reaction was stopped by adding stop solution to each well and plates were read at 450 nm.
(In general: ELISA stands for enzyme-linked immunosorbent assay.)

The subject of another assay is α1β1, α2β1 and/or α10β1. The assay is described as follows: Counter-screen for cross-reactivity to other collagen receptors. The format is binding, human. As to conditions: for Off Target: cross-reactivity to α1β1, α2β1, α10β1. Here is the method:
Wistar rats were immunized with recombinant human α11β1 protein. An enzyme-linked immunosorbent assay (ELISA) was used to test an immune response against target human and mouse proteins. Subsequently, cell fusion (by electro fusion) was performed with animals that produced a good immune response. All fused cells were plated in a 96-well plate and supernatants were screened by ELISA against soluble human and mouse α11β1. Positive clones were counter-screened against human α1β1, α2β1 and α10β1. […] Purified antibodies were then generated from the selected clones and heavy chain and light chain variable domain sequences were obtained from each purified antibody.
10 mice from 5 different strains were immunized with an appropriate mixture of human α11β1, mouse α11β1 and tolerance breaking protein. Plasma titers were evaluated by ELISA against a mixture of human and mouse α11β1. Popliteal, inguinal, and iliac lymph nodes were collected. ELISA-positive anti-human/mouse α11β1 hybridomas were expanded and subjected to a secondary screen against human and mouse α11β1, control HIS protein, and a counter-screen was performed against human […], α2β1 and α10β1. Supernatant IgG concentration was sufficient for functional screening. Selected hybridomas satisfying all the criteria were cloned and clonal hybridomas were confirmed by ELISA against human and mouse α11β1 and subsequently scaled-up and IgGs were purified. Heavy and light chain variable regions of selected hybridomas were then sequenced.
α11β1 belongs to a family of collagen receptors and has a relatively high homology to them. Therefore, the novel antibodies of this invention were counter-screened against α1β1, α2β1 and/or α10β1. Table 2 includes results of cross-reactivity to the other receptors.

In another assay the target is T1, I domain of α11β1 (Homo sapiens, UniProt Q9UKX5).
T1 construct: An in-house generated I domain of α11β1 was used; made in house
T1 sequence (Q9UKX5 164-345 limits assumed): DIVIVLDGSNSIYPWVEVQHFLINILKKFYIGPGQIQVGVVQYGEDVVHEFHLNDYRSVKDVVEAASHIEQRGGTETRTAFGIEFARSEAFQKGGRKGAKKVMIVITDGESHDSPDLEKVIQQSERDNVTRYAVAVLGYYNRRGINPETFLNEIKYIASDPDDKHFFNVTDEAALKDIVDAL
The assay is described as follows: ELISA binding to in-house generated I domain of α11β1. Conditions: for I Domain binding: Yes/No; for binding to I domain of α11β1 (high, medium, low): ELISA. Here is the method: as §1
22 Data was also collected to determine whether antibodies of interest bind to the I domain of α11β1. An in-house generated I domain of α11β1 was used. […] Mouse antibodies 10-F23, 10-L15, 7-O8, 6-A12, 9-G05 and 9-E16 and rabbit antibodies 7-H12 and 2-D3 were also tested for binding against the in-house generated α11031 domain. FIGS. 3A and 3B show graphs illustrating binding data from exemplary mAbs.

In assay [1] the test system is human pulmonary fibroblasts (HPFs). The assay is described as follows: FACS antibody binding to human pulmonary fibroblasts. Conditions: binding Yes/No. The procedure: (§2) Human Pulmonary Fibroblasts (ScienCell) were cultured in complete Fibroblast Growth Medium (ScienCell) until 80% confluent in T-150 flasks. Cells were washed and harvested using Accutase. Cells were seeded into T-150 flasks at 7,500 cells/cm^2 in complete FGF and cultured for 72 hours. Cells were then washed and starved in serum reduced medium for 24 hours. After starvation, cells were treated with TGFβ-1 (R&D Systems) for 72 hours. Cells were harvested using Accutase and seeded in 96-well conical bottom plates. Cells were blocked with Heat Inactived Fetal Bovine Serum (Gibco) for 30 minutes at 4° C. Cells were then incubated with anti-α11 antibodies at the doses described in each figure for 30 minutes at 4° C. A human anti-α11 antibody (Creative BioLabs) was included as a positive control as well as the appropriate IgG isotype negative controls. Cells were washed twice and incubated with PE conjugated secondary antibodies specific to the IgG class of the anti-α11 antibodies being tested for 30 minutes at 4° C. Cells were washed twice and fixed in 1% PFA for 30 minutes. Cells were acquired on a FACS Verse […]. Data were analyzed by gating on single cells and determining the geometric Mean Fluorescence Intensity (gMFI) in the PE channel for each sample.
(§3) Binding to a physiologically relevant primary human cell type was also tested. Human pulmonary fibroblasts (HPF) and TGFβ treatment were used to induce a fibroblast-to-myofibroblast transition (FMT), giving rise to myofibroblasts (MF). […] Additionally, HPFs express α11 and α2β1, other collagen binding receptors, which means that HPFs can be to test cross-reactivity of antibodies of interest.

The subject of another assay is myofibroblasts (MF). Kind of assay: FACS antibody binding to myofibroblasts. More on the design: species or system human. Conditions: binding Yes/No. Here is the method:
as §2, §3

Entries after “also recorded” stand apart in the source; their conditions may differ.

mouse α11β1, sequence (P61622 23-1141 limits assumed): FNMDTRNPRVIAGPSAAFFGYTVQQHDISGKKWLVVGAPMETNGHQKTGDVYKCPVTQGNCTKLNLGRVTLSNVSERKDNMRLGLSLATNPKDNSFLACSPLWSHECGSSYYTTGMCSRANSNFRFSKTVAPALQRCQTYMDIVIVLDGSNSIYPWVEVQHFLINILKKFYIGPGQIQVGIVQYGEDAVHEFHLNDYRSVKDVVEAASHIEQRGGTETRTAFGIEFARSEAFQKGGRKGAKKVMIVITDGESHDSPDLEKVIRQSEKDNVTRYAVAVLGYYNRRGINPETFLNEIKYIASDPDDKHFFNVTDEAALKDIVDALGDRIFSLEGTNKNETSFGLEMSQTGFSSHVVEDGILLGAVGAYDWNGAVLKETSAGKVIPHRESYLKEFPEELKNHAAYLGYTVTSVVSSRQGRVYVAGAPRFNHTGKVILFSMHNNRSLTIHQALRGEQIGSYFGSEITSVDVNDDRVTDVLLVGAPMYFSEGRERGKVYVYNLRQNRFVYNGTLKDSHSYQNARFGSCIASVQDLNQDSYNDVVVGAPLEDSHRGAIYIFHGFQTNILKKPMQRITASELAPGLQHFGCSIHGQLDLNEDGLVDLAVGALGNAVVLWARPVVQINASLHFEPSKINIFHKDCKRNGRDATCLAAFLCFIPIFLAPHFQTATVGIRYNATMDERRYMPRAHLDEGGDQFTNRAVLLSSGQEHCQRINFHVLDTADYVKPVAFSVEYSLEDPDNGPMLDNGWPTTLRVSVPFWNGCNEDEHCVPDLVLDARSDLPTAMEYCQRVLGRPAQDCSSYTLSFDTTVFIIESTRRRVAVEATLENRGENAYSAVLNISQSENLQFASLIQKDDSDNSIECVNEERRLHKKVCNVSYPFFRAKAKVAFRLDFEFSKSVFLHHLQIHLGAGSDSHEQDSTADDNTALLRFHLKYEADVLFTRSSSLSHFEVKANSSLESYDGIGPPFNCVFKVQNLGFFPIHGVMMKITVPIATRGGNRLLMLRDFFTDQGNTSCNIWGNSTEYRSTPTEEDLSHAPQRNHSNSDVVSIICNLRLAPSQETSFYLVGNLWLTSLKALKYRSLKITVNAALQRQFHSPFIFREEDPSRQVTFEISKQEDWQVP
mouse α11β1, sequence (P09055 21-728 partner limits assumed): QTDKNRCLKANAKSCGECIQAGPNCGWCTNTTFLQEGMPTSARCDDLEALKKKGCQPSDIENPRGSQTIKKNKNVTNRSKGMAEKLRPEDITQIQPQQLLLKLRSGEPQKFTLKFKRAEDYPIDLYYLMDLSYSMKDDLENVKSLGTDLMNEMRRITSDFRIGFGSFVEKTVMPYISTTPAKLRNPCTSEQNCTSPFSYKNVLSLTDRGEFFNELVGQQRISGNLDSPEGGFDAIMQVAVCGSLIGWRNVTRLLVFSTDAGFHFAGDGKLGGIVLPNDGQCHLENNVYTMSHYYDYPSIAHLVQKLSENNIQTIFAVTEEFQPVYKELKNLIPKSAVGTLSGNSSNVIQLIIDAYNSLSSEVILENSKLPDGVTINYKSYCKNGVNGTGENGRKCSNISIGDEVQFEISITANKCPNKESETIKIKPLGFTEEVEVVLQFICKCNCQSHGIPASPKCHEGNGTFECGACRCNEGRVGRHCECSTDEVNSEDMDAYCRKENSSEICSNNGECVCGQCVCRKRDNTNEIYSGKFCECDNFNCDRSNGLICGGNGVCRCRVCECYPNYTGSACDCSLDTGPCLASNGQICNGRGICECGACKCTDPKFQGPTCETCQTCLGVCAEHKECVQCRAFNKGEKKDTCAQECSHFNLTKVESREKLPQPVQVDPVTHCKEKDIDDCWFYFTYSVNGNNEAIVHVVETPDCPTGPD

B1: 8-P20: mouse anti-α11β1 mAb; VH SEQ ID NO: 105, VL SEQ ID NO: 106 (antibody, V domains shown)
VH: KVMLVESGGALVKPGGSLKLSCVASGFTFSNYAMSWVRQTPEKRLEWVATISSGGYYTYYPDSVKGRFTISRDNARNTLFLQMSSLRSEDTAMFYCAREDDYGRYSYTMDYWGQGTSVTVSS
VL: DVVMTQTPLSLPVSLGDQVSISCRCSQSLVHSNGNTYLHWYLQKPGQSPQLLIYKISNRFSGVPDRFSGSGSGTDFTLKISRVEAEDLGVYFCSQSTHVPYTFGGGTELEIK
Regarding B1, the “Murine α11β1 ELISA” value with mouse α11β1 is given as “No”. For the same molecule, the “Off Target” value with α1β1, α2β1 and/or α10β1 is “No”. Also, the “I Domain binding” value in the assay with I domain of α11β1 was “No”. In addition, the “HPF FACS” value in assay [1] was “No”. Also, the “MF FACS” value in the assay on myofibroblasts (MF) is listed as “Yes”.

B2: 8-J17: mouse anti-α11β1 mAb; VH SEQ ID NO: 113, VL SEQ ID NO: 114 (antibody, V domains shown)
VH: QVQLQQSGAELAKPGASVKMSCKASGYTFTNYWMHWVKQRPGQGLEWIGYINPNNGYTEYNQRFKDKATLTADRSSTTAYMQLSSLTSEDSAVYYCARSDIITTDYWGQGTTLTVSS
VL: DVVMTQTPLSLPVSLGDQASISCRSSQSLVYSNGNTYLHWYLQKPGQSPKLLIYKVSNRFSGVPDRFSGSGSGTDFTLKISRVEAEDLGVYFCSQSTHVPWTFGGGTKLEIK
For B2, the “Murine α11β1 ELISA” value with mouse α11β1 is recorded as “No”. Besides, the “Off Target” value with α1β1, α2β1 and/or α10β1 was “Yes”. Further, in the assay with I domain of α11β1, the “I Domain binding” value is on record as “No”. The “HPF FACS” value in assay [1] is “No”. The “MF FACS” value in the assay with myofibroblasts (MF) is “Yes”.

B3: 18E10F10: rat anti-α11β1 mAb; VH SEQ ID NO: 155, VL SEQ ID NO: 156 (antibody, V domains shown)
VH: MDIRLSLVFLVLFMKGVQCEVQLVESGGGLVQPGRSLKLSCAASRFTFSDYNMAWVRQAPKKGLEWVATIYHDDSGSYYRDSVKGRFTISRNNAKSTLYLQMDSLRSEDMATYYCARHNNGFDYWGQGVMVTVAS
VL: MKWPVRLLVLFFWIPASGGDVVMTQTPVSLPVRLGGQASISCRSSQSLVHSNGNTYLHWYLQKPGQSPQLLINRVSNRFSGVPDRFSGSGSGTDFTLKINRVEPEDLGDYYCLQSTHFPLTFGSGTKLETK
With B3, in the assay with mouse α11β1, the “Murine α11β1 ELISA” value is on record as “No”. Besides, the “Off Target” value in the assay on α1β1, α2β1 and/or α10β1 was “No”. The “I Domain binding” value with I domain of α11β1 is “No”.

B4: 8H8E9: rat anti-α11β1 mAb; VH SEQ ID NO: 149, VL SEQ ID NO: 150 (antibody, V domains shown)
VH: MAVLVLLLCLVTFPSCALSQVQLKESGPGLVQPSQTLSLTCTVSGFSLTSNSVSWVRQAPGKGLEWMGAIWSGGSTDYNSALKSRLSISRDTSKSQVFLKMNSLQTEDTAIYFCTRSHWEPFDYWGQGVMVTVSS
VL: MESQTQALISLLLWVYGTCGDIVMTQSPFSLAVSEGEMVTINCKSSQGLLSSGNQKNYLAWYQQRPGQSPKLLIYYASTRQSGVPDRFIGGGSGTDFTLTISDVQAEDLADYYCLQHYSYPPTFGSGTKLEIK
Turning to B4, the “Murine α11β1 ELISA” value in the assay with mouse α11β1 is “No”. Also, the “Off Target” value in the assay on α1β1, α2β1 and/or α10β1 is on record as “No”. Also, in the assay with I domain of α11β1, the “binding to I domain of α11β1 (high, medium, low)” value (shortened to “binding to I domain of α11β1”) was “medium” and the “I Domain binding” value is “No”.

B5: 6E5C11: rat anti-α11β1 mAb; VH SEQ ID NO: 151, VL SEQ ID NO: 152 (antibody, V domains shown)
VH: MAVLVLLLCLVTFPSCALSQVQLRESGPGLVQPSQTLSLTCTVSGFSLTSNSVTWVRQPPGKGLEWMGAIWSDGSTDYNSTLKSRLSISRDTSKSQVFLKMSSLQTEDTAIYFCTRSHWEPFDYWGQGVMVTVSS
VL: MESQTQALISLLLWVYGTCGDIVMTQSPLSLAVSEGETVTMNCKSSQSLFSSGNQKNYLAWYQQKPGQSPKLLIYYASTRQSGVPDRFIGSGSGTDFTLTISDVQTEDLADYYCLQHYNYPPTFGSGTKLEIK
In the case of B5, the “Murine α11β1 ELISA” value with mouse α11β1 is “No”. Besides, in the assay with α1β1, α2β1 and/or α10β1, the “Off Target” value is given as “No”. In the assay with I domain of α11β1, the “binding to I domain of α11β1” value was “low” and the “I Domain binding” value is recorded as “No”.

B6: 8-I14: mouse anti-α11β1 mAb; VH SEQ ID NO: 109, VL SEQ ID NO: 110 (antibody, V domains shown)
VH: EVQLQQSGPELVKPGASVKKSCKASGYTFTDYYMHWVKQKPGQGLEWIGKIYPGSGNTHYNEKFKGKATLTADKSSSTAYMQLSSLTSEDSAVYFCATNYYGYRAMNYWGQGSSVTVSS
VL: DIHLTQSPSSLSASLGERISLTCRASQDIYISLNWFQQKPDGTIKLLIYGTSSLDSGVPKRFSGSRSGSDYSLTISSLESEDFADYYCLQYASSPYTFGGGTKLEIK
Consider B6, for which, in the assay with mouse α11β1, the “Murine α11β1 ELISA” value was “Yes”. The “Off Target” value in the assay with α1β1, α2β1 and/or α10β1 is “No”. Also, the “I Domain binding” value with I domain of α11β1 was “No”. Further, the “HPF FACS” value in assay [1] is listed as “No”. Further, the “MF FACS” value in the assay on myofibroblasts (MF) is given as “Yes”.

B7: 40G10H11: rat anti-α11β1 mAb; VH SEQ ID NO: 157, VL SEQ ID NO: 158 (antibody, V domains shown)
VH: MDIRLSLGFLVLFIKGDQCAVQLVESGGGLVQPGRSLKLSCAASRITFTDYYMAWVRQAPTKGLEWVATISSDGGDTFYRDSVKGRFTISRDNAKSTLYLQMVSLRSEDTATYYCSTDRGAQFGYWGQGTLVTVSS
VL: MAPVQLLGLLLIWLPAMRCDIQMTQSPSFLSASVGDRVSINCKASQNVHENLNWYQQKLGEAPKRLIYNTNNLQTGIPSRFSGSGSGADYTLTISSLQPEDFATYFCLQHNAFPYTFGPGTKLELK
For the molecule B7, in the assay with mouse α11β1, the “Murine α11β1 ELISA” value is “Yes”. For the same molecule, in the assay on α1β1, α2β1 and/or α10β1, the “cross-reaction with other collagen receptors” value was “does cross-react with other collagen receptors (α1β1, a2β1 and a10β1)”; the “Off Target” value is “Yes (all)”. For the same molecule, in the assay with I domain of α11β1, the “I-domain binder” value is reported as “not found to be an I-domain binder; also recorded: neither of the antibodies was found to be an I-domain binder” and the “I Domain binding” value is recorded as “No”.

B8: 79E3E3: rat anti-α11β1 mAb; VH SEQ ID NO: 145, VL SEQ ID NO: 146 (antibody, V domains shown)
VH: MDWLWNLLFLMVVAQSAQAQIQLVQSGPEVKKPGESVKISCKASGYTFTDYAMNWVKQAPGNGLKWMGWINTQTGKPTYADDFKQRFVFSLETSARTTYLQINNLNIEDTATYFCTRLGTGNTKGFAYWGQGTLVTVSS
VL: MESQTHVLISLLLCVSGTCGDILINQSPASLTVSAGERVTMSCKSSQSLLYSENNQDYLAWYQQKPGQFPKLLIYGASNRHTGVPDRFTGSGSGTDFTLTISSVQAEDLADYYCEQTYRYPFTFGSGTKLEIK
For B8, in the assay with mouse α11β1, the “binding to mouse α11β1” value is given as “cross-reacts with mouse α11β1” and the “Murine α11β1 ELISA” value is recorded as “Yes”. Also, the “Off Target” value in the assay on α1β1, α2β1 and/or α10β1 is “No”. In the assay with I domain of α11β1, the “I-domain binder” value was “found to be an I-domain binder”; the “binding to I domain of α11β1” value was “high”; the “I Domain binding” value is on record as “Yes”. For the same molecule, the “HPF FACS” value in assay [1] is “No”. Also, the “MF FACS” value in the assay on myofibroblasts (MF) is listed as “Yes”.

Source of the values: US12460006B2, “Antibodies against integrin alpha 11 beta 1” (Momenta Pharmaceuticals, Inc., priority 2019, dated 2025).
